Data on 91 sequences can be found in the supplement of paper PMC9112550, “Optimization of the antimicrobial peptide Bac7 by deep mutational scanning” (BMC Biology, 2022).

In the series the test system is Escherichia coli TOP10. Description: shrunken log2 fold change of peptide-encoding DNA abundance (4.5 h post-induction vs induction); higher = less antimicrobial activity (less host growth inhibition). The note with it: time post-induction: 4.5 h; library: site-saturation at positions 5, 18, 19, 20.
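Further: peptides expressed intracellularly from a pBAD plasmid library in pooled LB shake-flask culture, induced with 0.3% L-arabinose, DNA abundance read by NGS, three biological replicates, DESeq2 with apeglm shrinkage.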

With RRIRQRPPRLPRPRPRPWNCPRP, the “shrunken log2 fold change” value was -0.0444.

As to RRIRQRPPRLPRPRPRPPEAPRP, the “shrunken log2 fold change” value was found to be 0.243.

As for RRIRWRPPRLPRPRPRPHCYPRP, the “shrunken log2 fold change” value was -0.0542.

In the case of RRIRYRPPRLPRPRPRPFIFPRP, the “shrunken log2 fold change” value is -1.01.

For RRIRSRPPRLPRPRPRPREEPRP, the “shrunken log2 fold change” value was 0.369.

Turning to RRIRIRPPRLPRPRPRPMMYPRP, the “shrunken log2 fold change” value was -0.13.

As to RRIRCRPPRLPRPRPRPNHQPRP, the “shrunken log2 fold change” value is -0.421.

Turning to RRIRRRPPRLPRPRPRPIQYPRP, the “shrunken log2 fold change” value is -0.00028.

Consider RRIRPRPPRLPRPRPRPFDTPRP, for which the “shrunken log2 fold change” value is -0.126.

RRIRGRPPRLPRPRPRPPFNPRP: the “shrunken log2 fold change” value came to 1.66.

Consider RRIRRRPPRLPRPRPRPLKMPRP, for which the “shrunken log2 fold change” value came out at 0.156.

RRIRWRPPRLPRPRPRPSCKPRP: the “shrunken log2 fold change” value was -0.183.

Turning to RRIRARPPRLPRPRPRPDPYPRP, the “shrunken log2 fold change” value is -0.169.

Turning to RRIRLRPPRLPRPRPRPMWNPRP, the “shrunken log2 fold change” value is -0.299.

Consider RRIRHRPPRLPRPRPRPINQPRP, for which the “shrunken log2 fold change” value is -0.243.

With RRIRGRPPRLPRPRPRPGFIPRP, the “shrunken log2 fold change” value worked out at 0.0369.

Take RRIRRRPPRLPRPRPRPAHDPRP: the “shrunken log2 fold change” value is 0.873.

Turning to RRIRHRPPRLPRPRPRPKNHPRP, the “shrunken log2 fold change” value was -0.566.

Turning to RRIRWRPPRLPRPRPRPKVFPRP, the “shrunken log2 fold change” value is -0.00123.

With RRIRIRPPRLPRPRPRPSYLPRP, the “shrunken log2 fold change” value was -0.831.

Consider RRIRFRPPRLPRPRPRPVFTPRP, for which the “shrunken log2 fold change” value is -0.0271.

RRIRFRPPRLPRPRPRPVSAPRP: the “shrunken log2 fold change” value was found to be 0.25.

RRIRFRPPRLPRPRPRPDCIPRP: the “shrunken log2 fold change” value is -0.349.

RRIRSRPPRLPRPRPRPGMQPRP: the “shrunken log2 fold change” value was -0.394.

As for RRIRYRPPRLPRPRPRPRGNPRP, the “shrunken log2 fold change” value is -0.0138.

RRIRNRPPRLPRPRPRPGPQPRP: the “shrunken log2 fold change” value amounted to 0.0395.

With RRIRFRPPRLPRPRPRPIQFPRP, the “shrunken log2 fold change” value was -0.000317.

Take RRIRHRPPRLPRPRPRPVVLPRP: the “shrunken log2 fold change” value was -0.298.

Regarding RRIRRRPPRLPRPRPRPRALPRP, the “shrunken log2 fold change” value is 0.482.

In the case of RRIRFRPPRLPRPRPRPQQHPRP, the “shrunken log2 fold change” value is -0.38.

RRIRRRPPRLPRPRPRPCGWPRP: the “shrunken log2 fold change” value was 0.776.

For the sequence RRIRTRPPRLPRPRPRPFPIPRP, the “shrunken log2 fold change” value was -1.16.

Turning to RRIRLRPPRLPRPRPRPTHKPRP, the “shrunken log2 fold change” value was found to be 0.38.

As for RRIRVRPPRLPRPRPRPSAQPRP, the “shrunken log2 fold change” value is 0.0391.

As to RRIRGRPPRLPRPRPRPPLLPRP, the “shrunken log2 fold change” value came to 0.633.

Take RRIRRRPPRLPRPRPRPVWSPRP: the “shrunken log2 fold change” value was -0.103.

For the sequence RRIRSRPPRLPRPRPRPCSGPRP, the “shrunken log2 fold change” value is -0.0317.

As for RRIRIRPPRLPRPRPRPRSRPRP, the “shrunken log2 fold change” value came to 0.0781.

Take RRIRCRPPRLPRPRPRPMYMPRP: the “shrunken log2 fold change” value is -0.143.

For the sequence RRIRNRPPRLPRPRPRPENGPRP, the “shrunken log2 fold change” value is -0.0225.

With RRIRERPPRLPRPRPRPCQWPRP, the “shrunken log2 fold change” value is -0.017.

As to RRIRWRPPRLPRPRPRPMENPRP, the “shrunken log2 fold change” value was determined as 0.0913.

For RRIRHRPPRLPRPRPRPFCTPRP, the “shrunken log2 fold change” value is -0.294.

Take RRIRNRPPRLPRPRPRPRPEPRP: the “shrunken log2 fold change” value was found to be 0.295.

Turning to RRIRHRPPRLPRPRPRPVPYPRP, the “shrunken log2 fold change” value was -0.246.

Turning to RRIRMRPPRLPRPRPRPVIQPRP, the “shrunken log2 fold change” value is 0.257.

On to RRIRVRPPRLPRPRPRPLAMPRP, for which the “shrunken log2 fold change” value came to 0.209.

As to RRIRVRPPRLPRPRPRPGTNPRP, the “shrunken log2 fold change” value is -0.254.

As for RRIRGRPPRLPRPRPRPWLPPRP, the “shrunken log2 fold change” value is -0.0942.

Regarding RRIRSRPPRLPRPRPRPEPCPRP, the “shrunken log2 fold change” value came out at 0.108.

For RRIRNRPPRLPRPRPRPRKCPRP, the “shrunken log2 fold change” value is -0.0149.

Consider RRIRRRPPRLPRPRPRPIQVPRP, for which the “shrunken log2 fold change” value is -0.0268.

Regarding RRIRGRPPRLPRPRPRPFVIPRP, the “shrunken log2 fold change” value was found to be 0.215.

In the case of RRIRHRPPRLPRPRPRPYVCPRP, the “shrunken log2 fold change” value stood at 0.0124.

For the sequence RRIRCRPPRLPRPRPRPRIKPRP, the “shrunken log2 fold change” value turned out to be 0.0662.

In the case of RRIRVRPPRLPRPRPRPWGKPRP, the “shrunken log2 fold change” value is -0.0952.

Take RRIRIRPPRLPRPRPRPPHWPRP: the “shrunken log2 fold change” value amounted to 0.0943.

Regarding RRIRERPPRLPRPRPRPCQSPRP, the “shrunken log2 fold change” value was -0.127.

Consider RRIRLRPPRLPRPRPRPENSPRP, for which the “shrunken log2 fold change” value came to 0.000683.

On to RRIRTRPPRLPRPRPRPADTPRP, for which the “shrunken log2 fold change” value was -0.215.

For RRIRGRPPRLPRPRPRPEYQPRP, the “shrunken log2 fold change” value came to 0.416.

In the case of RRIRLRPPRLPRPRPRPWWAPRP, the “shrunken log2 fold change” value came out at 0.0811.

Take RRIRPRPPRLPRPRPRPYFCPRP: the “shrunken log2 fold change” value is -0.293.

Regarding RRIRLRPPRLPRPRPRPGHWPRP, the “shrunken log2 fold change” value was 0.279.

With RRIRLRPPRLPRPRPRPWWFPRP, the “shrunken log2 fold change” value was -0.21.

On to RRIRQRPPRLPRPRPRPRSLPRP, for which the “shrunken log2 fold change” value was -0.0177.

Turning to RRIRPRPPRLPRPRPRPHCNPRP, the “shrunken log2 fold change” value is -0.52.

RRIRKRPPRLPRPRPRPHPPPRP: the “shrunken log2 fold change” value amounted to 1.27.

Consider RRIRDRPPRLPRPRPRPTVFPRP, for which the “shrunken log2 fold change” value is 0.708.

For the sequence RRIRPRPPRLPRPRPRPSCWPRP, the “shrunken log2 fold change” value was found to be 0.36.

Consider RRIRVRPPRLPRPRPRPHNNPRP, for which the “shrunken log2 fold change” value was -0.652.

Consider RRIRVRPPRLPRPRPRPLQPPRP, for which the “shrunken log2 fold change” value came to 0.158.

With RRIRPRPPRLPRPRPRPNFTPRP, the “shrunken log2 fold change” value was determined as 0.0917.

As to RRIRMRPPRLPRPRPRPSDRPRP, the “shrunken log2 fold change” value came out at 0.0714.

For RRIRIRPPRLPRPRPRPRSEPRP, the “shrunken log2 fold change” value is -0.0944.

Turning to RRIRTRPPRLPRPRPRPSIHPRP, the “shrunken log2 fold change” value is -0.561.

Turning to RRIRWRPPRLPRPRPRPSDQPRP, the “shrunken log2 fold change” value came out at 0.138.

Regarding RRIRVRPPRLPRPRPRPDEGPRP, the “shrunken log2 fold change” value stood at 0.0672.

As to RRIRCRPPRLPRPRPRPTKKPRP, the “shrunken log2 fold change” value is -0.000922.

As to RRIRWRPPRLPRPRPRPFIDPRP, the “shrunken log2 fold change” value is -0.046.

Turning to RRIRRRPPRLPRPRPRPVLMPRP, the “shrunken log2 fold change” value was 0.146.

In the case of RRIRCRPPRLPRPRPRPEGIPRP, the “shrunken log2 fold change” value is -0.106.

In the case of RRIRGRPPRLPRPRPRPSQSPRP, the “shrunken log2 fold change” value worked out at 0.0755.

Turning to RRIRWRPPRLPRPRPRPKDKPRP, the “shrunken log2 fold change” value is 0.077.

Regarding RRIRSRPPRLPRPRPRPILIPRP, the “shrunken log2 fold change” value is -0.384.

As for RRIRVRPPRLPRPRPRPQVDPRP, the “shrunken log2 fold change” value is 0.00887.

Turning to RRIRSRPPRLPRPRPRPFTVPRP, the “shrunken log2 fold change” value is -0.0157.

As for RRIRIRPPRLPRPRPRPHTLPRP, the “shrunken log2 fold change” value is -0.436.

With RRIRNRPPRLPRPRPRPVYMPRP, the “shrunken log2 fold change” value is -0.0311.

As for RRIRHRPPRLPRPRPRPIFRPRP, the “shrunken log2 fold change” value was -0.173.

As for RRIRARPPRLPRPRPRPETFPRP, the “shrunken log2 fold change” value was -0.0526.
